Data taken from patent US20200002403A1 (UNIVERSITY COURT OF THE UNIVERSITY OF ABERDEEN, published 2020).

T1: mouse ICOSL (mouse, UniProt Q9JHJ8 47-279, limits assumed)
T1 construct: Target of ELSS1 panning; also called mICOSL
T1 sequence (looked up): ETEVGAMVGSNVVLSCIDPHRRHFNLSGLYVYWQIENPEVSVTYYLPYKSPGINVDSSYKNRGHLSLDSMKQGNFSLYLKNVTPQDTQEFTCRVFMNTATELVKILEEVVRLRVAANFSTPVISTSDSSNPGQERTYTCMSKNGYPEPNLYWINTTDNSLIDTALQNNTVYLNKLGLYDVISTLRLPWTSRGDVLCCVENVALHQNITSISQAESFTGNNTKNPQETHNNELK


Biological target: T1, mouse ICOSL
Test: lead clones against targets used to screen ELSS1; alignment legend

Binder	binding result
SEQ ID NO 41 (VNAR, VNAR) VNAR: ASVNQTPRTATKETGESLTINCVLTDTGYGWFATSWFRKNPGTTDWERMSIGGRYVESVNKGAKSFSLRIKDLTVADSATYICRADMWPKNTKYSPDVYGAGTVLTVN	binds
SEQ ID NO 44 (VNAR, VNAR) VNAR: TRVDQTPRTATKETGESLTINCVLTDTSYGWFSTSWFRKNPGTTDWERMSIGGRYVESVNKGAKSFSLRIKDLTVADSATYICRAQAAIPDFPRYVYGAGTVLTVN	binds
SEQ ID NO 42 (VNAR, VNAR) VNAR: TRVDQTPRTATKETGESLTINCVLTDTEYGLFSTSWFRKNPGTTDWERMSIGGRYVESVNKGAKSFSLRIKDLTVADSATYYCKALGWWPPAFPHWYDGAGTVLTVN	binds

Next, values leading:

binding result	Binder
binds	SEQ ID NO 45 (VNAR, VNAR) VNAR: TRVDQTPRTATKETGESLTINCVLTDTGYGLFSTSWFRKNPGTTDWERMSIGGRYVESVNKGAKSFSLRIKDLTVADSATYYCKALGWIPPEFPHWYDGAGTVLTVN
binds	SEQ ID NO 43 (VNAR, VNAR) VNAR: TRVDQTPRTATKETGESLTINCVLTDTRYALYSTSWFRKNPGTTDWERMSIGGRYVESVNKGAKSFSLRIKDLTVADSATYICRANEMMPPMDVYGAGTVLTVN
